Data reported in PMC9722607 (Structure (London, England : 1993), 2022).

B1: 6x-His-tagged PqsE (wild type) (enzyme)
chain: MLRLSAPGQLDDDLCLLGDVQVPVFLLRLGEASWALVEGGISRDAELVWADLCRWVADPSQVHYWLITHKHYDHCGLLPYLCPRLPNVQVLASERTCQAWKSESAVRVVERLNRQLLRAEQRLPEACAWDALPVRAVADGEWLELGPRHRLQVIEAHGHSDDHVVFYDVRRRRLFCGDALGEFDEAEGVWRPLVFDDMEAYLESLERLQRLPTLLQLIPGHGGLLRGRLAADGAESAYTECLRLCRRLLWRQSMGESLDELSEELHRAWGGQSVDFLPGELHLGSMRRMLEILSRQALPLD

Legend:
cryo-EM structure = biological target: the molecule itself; experiment: cryo-EM structure
[1] = biological target: B1; experiment: pull-down

Question: Which “stoichiometry N” value (cryo-EM structure) does the source give for B1 here?
Answer: Its value is 2.

B2: RhlR (wild type, untagged, bound to mBTL) (natural protein)
chain: MRNDGGFLLWWDGLRSEMQPIHDSQGVFAVLEKEVRRLGFDYYAYGVRHTIPFTRPKTEVHGTYPKAWLERYQMQNYGAVDPAILNGLRSSEMVVWSDSLFDQSRMLWNEARDWGLCVGATLPIRAPNNLLSVLSVARDQQNISSFEREEIRLRLRCMIELLTQKLTDLEHPMLMSNPVCLSHREREILQWTADGKSSGEIAIILSISESTVNFHHKNIQKKFDAPNKTLAAAYAAALGLI
Question: With B2 as the binder, how does the “stoichiometry N” value (cryo-EM structure) read?
Answer: The value was 2.

B3: RhlR F53A (natural protein)
chain: MRNDGGFLLWWDGLRSEMQPIHDSQGVFAVLEKEVRRLGFDYYAYGVRHTIPATRPKTEVHGTYPKAWLERYQMQNYGAVDPAILNGLRSSEMVVWSDSLFDQSRMLWNEARDWGLCVGATLPIRAPNNLLSVLSVARDQQNISSFEREEIRLRLRCMIELLTQKLTDLEHPMLMSNPVCLSHREREILQWTADGKSSGEIAIILSISESTVNFHHKNIQKKFDAPNKTLAAAYAAALGLI
Question: With B3 as the binder, how does the “efficacy of binding relative to WT RhlR” value [1] read?
Answer: The value was 50%.

B4: RhlR C157S (natural protein)
chain: MRNDGGFLLWWDGLRSEMQPIHDSQGVFAVLEKEVRRLGFDYYAYGVRHTIPFTRPKTEVHGTYPKAWLERYQMQNYGAVDPAILNGLRSSEMVVWSDSLFDQSRMLWNEARDWGLCVGATLPIRAPNNLLSVLSVARDQQNISSFEREEIRLRLRSMIELLTQKLTDLEHPMLMSNPVCLSHREREILQWTADGKSSGEIAIILSISESTVNFHHKNIQKKFDAPNKTLAAAYAAALGLI
Question: With B4 as the binder, how does the “efficacy of binding relative to WT RhlR” value [1] read?
Answer: The value was 70%.
